Measured values reported in the RNAGym collection of RNA variant scans (doi:10.7554/elife.80360).

B1: Twister Ribozyme (parent)
chain: AACACUGCCAAUGCCGGUCCCAAGCCCGGAUAAAAGUGGAGGGGGCGG

Variants of: B1
Test: self-cleavage, relative activity (ratio to wild type); higher = more cleavage; co-transcriptional
For A30U G42C, the self-cleavage was 0.501. G16U A32U gave a self-cleavage of 1. For C25U C26U, the self-cleavage was 0.132. Variant A22U G38C has a self-cleavage of 0.779. G29C U31C gave a self-cleavage of 0.999. In the case of G17A A40G, the self-cleavage is reported as 0.171. C5U G39A gave a self-cleavage of 0.167. C21U C26A showed a self-cleavage of 0.0796. G13A G39U showed a self-cleavage of 0.171. In the case of A1U G44A, the self-cleavage is reported as 0.0502. A33C U37G showed a self-cleavage of 0.626. With C21G G24U the self-cleavage was 0.0976. For A22U C26A, the self-cleavage was 0.11. A33U A40U showed a self-cleavage of 0.157. A40G G45A gave a self-cleavage of 0.146. Work on A1C C3G yielded a self-cleavage of 0.161. With A1C G29A the self-cleavage was 0.184. C15G G41A showed a self-cleavage of 0.112. Variant A1G A2G has a self-cleavage of 1.19. C9A A10U gave a self-cleavage of 0.646. Work on U37C yielded a self-cleavage of 0.738. U12A C25A gave a self-cleavage of 0.15. C9A U18A gave a self-cleavage of 0.0887. With C5G C8A the self-cleavage was 0.15. In the case of C20U A23G, the self-cleavage is reported as 0.121. For U12A C27G, the self-cleavage was 0.138. Work on C8G C15A yielded a self-cleavage of 0.0877. For C20G A22C, the self-cleavage was 0.147. In the case of G16C G24C, the self-cleavage is reported as 0.0655. C15A A35C showed a self-cleavage of 0.546. In the case of G7C A11U, the self-cleavage is reported as 0.0693. C5A C21U showed a self-cleavage of 0.0869. For C5A C21G, the self-cleavage was 0.113. With C9U G45A the self-cleavage was 0.547. With C3G A10C the self-cleavage was 0.28. A35U G47U gave a self-cleavage of 0.893. In the case of A40C G41C, the self-cleavage is reported as 0.15. In the case of G24U G28A, the self-cleavage is reported as 0.0754. A10G G16C gave a self-cleavage of 0.567. With U12C G42C the self-cleavage was 0.486. Work on U31C G47C yielded a self-cleavage of 0.745. U12G A30U showed a self-cleavage of 0.812. For U37G G45C, the self-cleavage was 0.268. U12A G48A showed a self-cleavage of 0.991. Work on A33C G44A yielded a self-cleavage of 0.832. U18G C26A showed a self-cleavage of 0.0682. G17C G36A gave a self-cleavage of 0.0801. C8G G42A gave a self-cleavage of 0.131. In the case of G29A G42C, the self-cleavage is reported as 0.46. In the case of A4U C15A, the self-cleavage is reported as 0.0639. In the case of C21A G42A, the self-cleavage is reported as 0.0769. With U12G G45A the self-cleavage was 0.583. C9U A33U gave a self-cleavage of 0.751. Variant C20A has a self-cleavage of 0.16. With C27G U31A the self-cleavage was 0.099. In the case of C25U G47C, the self-cleavage is reported as 0.248. With A30C G48U the self-cleavage was 0.759. With A4C A11C the self-cleavage was 0.0104. A22C A23C showed a self-cleavage of 0.148. Variant A1U G43U has a self-cleavage of 0.0499. Work on A10G A32U yielded a self-cleavage of 1.01. In the case of G13U U18G, the self-cleavage is reported as 0.0548. In the case of G13U U18C, the self-cleavage is reported as 0.0744. Variant C3U G17U has a self-cleavage of 0.0762. In the case of U6C G17A, the self-cleavage is reported as 0.0938. A33G G45C showed a self-cleavage of 0.545. In the case of G28C A40G, the self-cleavage is reported as 0.188. In the case of G13C A35U, the self-cleavage is reported as 0.629. In the case of C15A G47C, the self-cleavage is reported as 0.253. For A4C C25G, the self-cleavage was 0.0395. In the case of C9U G29C, the self-cleavage is reported as 0.242. With A4C G42A the self-cleavage was 0.0686. C5U G43A gave a self-cleavage of 0.141. U12A G47U showed a self-cleavage of 1.05. Variant U12C G44U has a self-cleavage of 0.902. G7C A10G showed a self-cleavage of 0.0662. For A23U G41C, the self-cleavage was 0.0988. C5A G36U showed a self-cleavage of 0.689. Work on G17U C21U yielded a self-cleavage of 0.0901. Variant A22G G41A has a self-cleavage of 0.0888. Work on A10C G36C yielded a self-cleavage of 0.688. For C27G G42U, the self-cleavage was 0.0711. For C9U G48U, the self-cleavage was 0.646. With U12A U37G the self-cleavage was 0.925. In the case of G28A G38C, the self-cleavage is reported as 0.691. Variant A11G C15A has a self-cleavage of 0.567. In the case of C20G A23U, the self-cleavage is reported as 0.121. With G7A C26U the self-cleavage was 0.102. With A1C U37G the self-cleavage was 0.262. A2U G43U gave a self-cleavage of 0.139. U18C G42U showed a self-cleavage of 0.0957. Work on A1U G28A yielded a self-cleavage of 0.0517. For C3U A35G, the self-cleavage was 0.136. In the case of A4C G36C, the self-cleavage is reported as 0.0766. Variant C20A G39A has a self-cleavage of 0.114. Variant C8U A23U has a self-cleavage of 0.078. U6C G39A showed a self-cleavage of 0.273. Work on C8U G44A yielded a self-cleavage of 0.658. U6G G45U showed a self-cleavage of 0.129. With A35G A40G the self-cleavage was 0.118. Work on A32U G41C yielded a self-cleavage of 0.284. Work on U18C A35C yielded a self-cleavage of 0.641. Work on A32C G41A yielded a self-cleavage of 0.556. In the case of C26U U37A, the self-cleavage is reported as 0.121. A4C C21A showed a self-cleavage of 0.105. A1C G43C gave a self-cleavage of 0.141. Work on A1C G43A yielded a self-cleavage of 0.135. Work on C26G G42U yielded a self-cleavage of 0.13. With A11C A30G the self-cleavage was 0.739. For G16C A40G, the self-cleavage was 0.135. Variant A4C C20G has a self-cleavage of 0.0372. Work on G29A A33C yielded a self-cleavage of 0.768. For U12C G28A, the self-cleavage was 0.829. C5U A23C gave a self-cleavage of 0.116. Variant U12G G29C has a self-cleavage of 0.677. With A34G A35U the self-cleavage was 0.92. In the case of G13C G24A, the self-cleavage is reported as 0.0986. Work on U6G A33U yielded a self-cleavage of 0.234. For C9G C26A, the self-cleavage was 0.115. G17U G48C gave a self-cleavage of 0.467. For A2C G24U, the self-cleavage was 0.0478. With A1C C15U the self-cleavage was 0.153. G43U G47U gave a self-cleavage of 0.137. In the case of A30C A33G, the self-cleavage is reported as 0.58. With A23G G28C the self-cleavage was 0.246. Variant A11C C20U has a self-cleavage of 0.91. Variant C9U A34U has a self-cleavage of 0.477. With A30U G44U the self-cleavage was 0.973. For C19G A32C, the self-cleavage was 0.386. Work on A10C A23U yielded a self-cleavage of 0.664. For G7A G44A, the self-cleavage was 0.619. In the case of C9G G47U, the self-cleavage is reported as 0.278. For G28A A40U, the self-cleavage was 0.125. For A1C A35C, the self-cleavage was 0.161. Work on G29A G39C yielded a self-cleavage of 0.166. Variant G29A G39A has a self-cleavage of 0.381. With U12C G16A the self-cleavage was 0.938. With U6G U18C the self-cleavage was 0.131. With G38C C46A the self-cleavage was 0.791. With G16A G44U the self-cleavage was 1. In the case of A4G C15U, the self-cleavage is reported as 0.944. Work on A2U U37G yielded a self-cleavage of 0.214. With C5G U37A the self-cleavage was 0.404. Variant C14U G17U has a self-cleavage of 0.373. For G7U G47C, the self-cleavage was 0.0954. With U12G U37A the self-cleavage was 0.576. C8G A34U showed a self-cleavage of 0.553. For C26G C46G, the self-cleavage was 0.218. C8G G13U showed a self-cleavage of 0.194. Work on C27G A34C yielded a self-cleavage of 0.0686. In the case of C27A A34U, the self-cleavage is reported as 0.145. With U18A G39A the self-cleavage was 0.104. A4G A30U gave a self-cleavage of 0.762. For A4G A23C, the self-cleavage was 0.0625. Work on C3U C26A yielded a self-cleavage of 0.148. G13C G45U gave a self-cleavage of 0.144. Variant C14U G39U has a self-cleavage of 0.28. In the case of C19G A33U, the self-cleavage is reported as 0.187. For G42C G47A, the self-cleavage was 0.43. With G7U G17U the self-cleavage was 0.0401. For G13C C20G, the self-cleavage was 0.0962. A32C U37G showed a self-cleavage of 0.625. Variant U37A A40C has a self-cleavage of 0.127. In the case of C15U G28U, the self-cleavage is reported as 0.973. For U12G A23G, the self-cleavage was 0.502. Variant C3U U18A has a self-cleavage of 0.158. Variant G13C A30C has a self-cleavage of 0.518.
